± gives the standard error. Variants at the floor of the assay were thinned out.
B1: glmS ribozyme (parent)
chain: AUAAAAGCGCCAGAACUACAGAAAUGUAGUUGACGAGGAGGAGGUUUAUCGAAUUUUCGGCGGAUGCCUCCAAA

Tests used:
Conditions in all cases: with glucosamine-6-phosphate
glucosamine-6-phosphate [1] = variants of: B1; test: self-cleavage kobs at 640 uM GlcN6P; higher = faster cleavage; RNA array
In short: (§1)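 Glucosamine-6-phosphate, from 40 μM to 10 mM in HEPES/KCl/Mg(OAc)2 buffer, was flowed over sequenced MiSeq chips carrying barcoded ribozyme variants transcribed in situ by E. coli RNA polymerase. A hybridised Cy3 probe tracked the variants at 37 °C as tiles were imaged over ~14 h. kobs, kcat and KM were obtained by fitting normalised per-tile medians to exponential decays and then applying weighted Michaelis–Menten fits across concentrations.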

glucosamine-6-phosphate [2] = variants of: B1; test: self-cleavage kobs at 2500 uM GlcN6P; higher = faster cleavage; RNA array
In short: as §1

glucosamine-6-phosphate [3] = variants of: B1; test: self-cleavage kobs at 10000 uM GlcN6P; higher = faster cleavage; RNA array
In short: as §1

Variant	self-cleavage kobs at 640 uM GlcN6P (glucosamine-6-phosphate [1]) [s⁻¹]	self-cleavage kobs at 2500 uM GlcN6P (glucosamine-6-phosphate [2]) [s⁻¹]	self-cleavage kobs at 10000 uM GlcN6P (glucosamine-6-phosphate [3]) [s⁻¹]
G35U A39G G43A	< 1e-05	< 1e-05	–
G38C G43A A64G	< 1e-05	–	–
G7C A15C G51U C61A G66U	< 1e-05	–	–
A6C A42U C70G	< 1e-05	< 1e-05	–
C10G A15C A36U	< 1e-05	–	–
G35A U46G A48G C68A C71U	< 1e-05	< 1e-05	–
C11U A36C G43U C71A	< 1e-05	–	–
G13C U46A G66A C70A	< 1e-05	–	–
C50G C61U G66U	7.98e-05 ± 2.8e-05	0.00022 ± 8e-05	–
A6U A14C G51C	< 1e-05	< 1e-05	–
C16A G51U C67G	0.000109 ± 4.2e-05	–	–
C8U C58U G62C A64U	< 1e-05	< 1e-05	–
G9C G40C U49G	< 1e-05	–	< 1e-05
A14G G29A A39G A42G G43U G62C	< 1e-05	< 1e-05	–
C16U G38C	< 1e-05	–	–
C8G G32A U46C A53U G63C	< 1e-05	< 1e-05	–
G13C G37U G60U	< 1e-05	–	–

Variant	self-cleavage kobs at 640 uM GlcN6P (glucosamine-6-phosphate [1]) [s⁻¹]	self-cleavage kobs at 2500 uM GlcN6P (glucosamine-6-phosphate [2]) [s⁻¹]	self-cleavage kobs at 10000 uM GlcN6P (glucosamine-6-phosphate [3]) [s⁻¹]
G29U A42G G62C	< 1e-05	–	–
A14G A52U G60A	< 1e-05	–	–
A6G G29U G62C	< 1e-05	–	–
A33U G44C G51A U56A	< 1e-05	–	–
A14C G38U G44U C68G	< 1e-05	< 1e-05	–
A14U C68G	6.11e-05 ± 1.7e-05	3.41e-05 ± 1.3e-05	–
A15G G35A G44U C50G G59C G60C	< 1e-05	–	–
G51A G66A U69A	0.000177 ± 7.9e-05	–	–
C11A A14G G41U G51C	< 1e-05	< 1e-05	–
A33U G41U G60C	< 1e-05	–	–
G32C G37U G38C	< 1e-05	< 1e-05	–
C8G C11U G32U G59U	< 1e-05	< 1e-05	–
G29U A33U G44A	< 1e-05	< 1e-05	–
A12G G44U C70G	< 1e-05	< 1e-05	–
G7A G9U C68U	< 1e-05	–	–
A39U U56A A72U	0.000916 ± 0.00022	0.00356 ± 0.00049	–
C11U U31A C50G	8.34e-05 ± 2.1e-05	9.55e-05 ± 3.2e-05	–

Source: the supplement of paper PMC7125110
